The values that follow come from the RNAGym collection of RNA variant scans (doi:10.1073/pnas.2313332121).

First the molecules themselves.
B1: TPR t1 (parent)
chain: GACCAAUCUGCCCUCAGAGCUCGAGAACAUCUUCGGAUGCAGAGGAGGCAGGCUUCGGUGGCGCGAUAGCGCCAACGUCCUCAACCUCCAAUGCAUCCCACCACAUGAUGAUGCCUGAAGAGCCUUGGUUUUUUG

In the series the parent is B1. The experiment in a line: polymerase ribozyme fitness, log enrichment relative to wild type (log ratio); higher = more active; in vitro selection for triplet polymerase activity. The method in brief:
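Mutant libraries of each subunit of a heterodimeric triplet polymerase ribozyme were built by PCR and transcribed. Each library went through one round of in vitro selection in triplicate: annealing with biotinylated primer, partner subunit and triplets, frozen incubation at −7 °C, gel excision of extended constructs, streptavidin-bead capture and RT-PCR. Input and output libraries were Illumina-sequenced; only genotypes with ≥10 input reads and ≥1 read per output were kept. Fitness is log2(genotype enrichment/wild-type enrichment), using inverse-variance-weighted replicate averages.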
Regarding C15G G71U, the “polymerase ribozyme fitness (log ratio)” value is -1.94.
In the case of C15A A27G G39A G44A G69U G71U C82U C88U C102U it was -6.86.
As to U14C G77C G113A, the “polymerase ribozyme fitness (log ratio)” value is -5.53.
Next, U14C G57U C80A U133A: -3.25; U14C G71C: -2.35; C15G A41U C56U U96C C124G: -2.08.
In the case of U14G C56U C70A A83C C104G G110A U116A, the “polymerase ribozyme fitness (log ratio)” value is -5.43.
In the case of C15G G45C C102A G113U G122A, the “polymerase ribozyme fitness (log ratio)” value was -5.64.
Consider C15G C76G C101A, for which the “polymerase ribozyme fitness (log ratio)” value is -3.53.
As to C15A G69U C101A C123U G127A, the “polymerase ribozyme fitness (log ratio)” value was -4.17.
On to U14C A18G U21C G69U A103C C115U, for which the “polymerase ribozyme fitness (log ratio)” value is -5.98.
For U14A G63U G113A, the “polymerase ribozyme fitness (log ratio)” value is -5.73.
Next, C15G G71A A90G: -3.09; C15A C49U A90U A108G C114G: -6.22.
With U14G C20A C73U C102U U133A, the “polymerase ribozyme fitness (log ratio)” value was -4.53.
Consider U14C C70G, for which the “polymerase ribozyme fitness (log ratio)” value was -4.01.
As to C15G C20U, the “polymerase ribozyme fitness (log ratio)” value is -2.98.
C15A C40A C70A C97U G120U: the “polymerase ribozyme fitness (log ratio)” value was -5.14.
In the case of U14C U132C it was -1.36; in that of C15G C70A, -5.24.
Next, C15A G69C C94U U126A: -5.2.
For the variant C15A A46U G77U, the “polymerase ribozyme fitness (log ratio)” value is -2.81.
U14A C94G: the “polymerase ribozyme fitness (log ratio)” value is -3.05.
For the variant U14A G36U A46C A91U C114G A121U G122A, the “polymerase ribozyme fitness (log ratio)” value was -5.85.
Regarding C15A A46U C76U C101U C115U, the “polymerase ribozyme fitness (log ratio)” value was -4.21.
In the case of C15A G42A C56A G69U A100C U132A it was -4.53; in that of C15A C114A, -4.98; in that of U14G C40A, -2.06.
In the case of U14G A121C it was 0.71; in that of C15A G36U A121G, 0.928; in that of U14C C56G, -2.27.
With C15G G61U U78C C101A, the “polymerase ribozyme fitness (log ratio)” value is -3.49.
For the variant U14A G57C G58A G61A C89U G127U U129C U130C, the “polymerase ribozyme fitness (log ratio)” value was -6.54.
In the case of C15G C53U C85G it was -4.35; in that of U14G C15U C20G C70U C123A, -5.25; in that of U14C C15U G39A C72G G117A, -1.31.
In the case of U14C G93A it was -2.47; in that of U14A G122A, -1.5; in that of C15G U32C G36C C49G U59C G120C, -4.02.
Next, U14A G42C G110C: -5.7; C15A G42U C85U G120C: -1.73.
With C15A G52A G60A U112C U116C, the “polymerase ribozyme fitness (log ratio)” value was -3.35.
On to C15A G17A C73G U112A, for which the “polymerase ribozyme fitness (log ratio)” value was -4.93.
Next, C15G A43U: -3.43; C15G U96C G117C U130G: 0.208.
In the case of U14G A75U C94U U109C G127C U133G it was -4.46.
In the case of C15A C56A G117U it was 0.157; in that of C15G A118U C123U, -0.83.
In the case of U14A U112G, the “polymerase ribozyme fitness (log ratio)” value was -0.736.
Take C15G G69U C94A U109A C124A: the “polymerase ribozyme fitness (log ratio)” value is -4.14.
As to C15A U106G, the “polymerase ribozyme fitness (log ratio)” value is -3.3.
For C15A C73G, the “polymerase ribozyme fitness (log ratio)” value is -3.16.
Next, U14A U30A A66U G69U U92G C94A G117C: -6.34; C15A U54A C56A: -2.64.
Next, U14G C40A C62U: -3.06; C15G C62U A90G U126A: -3.64.
Turning to C15A C28U G61C, the “polymerase ribozyme fitness (log ratio)” value is -5.32.
In the case of C15A G63U A68G A111G it was -7.51; in that of C15G A27C A41G C114U U116C, -7.35; in that of U14G G61A, -1.48.
Turning to U14A U59A A91G, the “polymerase ribozyme fitness (log ratio)” value is -4.05.
In the case of C15A U96A it was -2.85; in that of C15G C40U G61A C89U A91C C123G, -0.621.
With U14C G113A A118U, the “polymerase ribozyme fitness (log ratio)” value is -4.79.
As for U14A U33G A37U G42U G61C U109A, the “polymerase ribozyme fitness (log ratio)” value is -6.69.
In the case of U14A G36U A37U it was -3.4; in that of C15A U133G, -3.68.
In the case of U14A U54A U130G it was -4.16; in that of U14G U55C C70A G135U, -4.4.
Next, C15G G117A: -1.61; C15G A74U C88A C101U: -4.74; C15G A27G A95G G110U: -5.6.
Regarding C15A G69U C88U U125C, the “polymerase ribozyme fitness (log ratio)” value is -3.27.
In the case of U14G A37C it was -2.99.
Next, C15A C53U: -1.61; C15A G71C C97G G117U: -5.07; U14A G48A C53G C64U: -2.48.
Consider C15G C40A A121G U129C, for which the “polymerase ribozyme fitness (log ratio)” value was -3.1.
For the variant C15A C76A, the “polymerase ribozyme fitness (log ratio)” value is -2.53.
Turning to C15A C22U C62G A83U C98A C123A U125A, the “polymerase ribozyme fitness (log ratio)” value was -6.9.
Next, C15G A37U G48U G77U G122A: -4.17; U14A G60C C97G C123A: -5.56.
Turning to C15A C28G, the “polymerase ribozyme fitness (log ratio)” value was -4.4.
For U14G G48A C104A, the “polymerase ribozyme fitness (log ratio)” value is -3.69.
